Two molecules from CN111110862A can be followed below.

As usually defined, the EC50 is the concentration needed to bring the measured effect to its halfway point. Low values mean higher potency in that assay, high ones lower potency in that assay.

Experiment [1] concerns the target 人CLDN18.2(hCLDN18.2) (human) (UniProt P56856). The experiment can be described thus: cell ELISA on fixed hCLDN18.2+cell, plateau reading.
Experiment [2] has the same target. The experiment can be described thus: cell ELISA on fixed hCLDN18.2+cell. In general terms: In an ELISA, binding on a coated surface is turned into a signal by an enzyme label.
Experiment [3] shares this target. The experiment in a line: cell ELISA, hybridoma supernatant on hCLDN18.2+cell.

B1: anti-hCLDN18.2鼠源抗体mab5b (antibody, human IgG1, kappa, V domains shown)
VH: QVQLQQSGAELIGPGTSVKVSCKASGYAFSNYLIEWVKQRPEQGLEWIGLINPGSGGTNYNEKFKGKATLTADKSSSTAYMQLSSLTSDDSAVYFCARVYYGNSFAYWGQGTLVTVSA
VL: DIVMTQSPSSLTVTAGEKVTMSCKSSQSLLNSGNQKNYLTWYQQKPGQPPKLLIYWASTRESGVPDRFTGSGSGTHFTLTISSVQAEDLAVYYCQNDYFYPFTFGSGTKLEKKR
B1 came in with an Emax in experiment [1] of 1.92. Also, in experiment [2], the EC50 worked out at 0.115 nM, the Emax higher than Ref was more than 36% and the fold better binding (EC50) than Ref is more than 1 fold.

B2: 杂交瘤单克隆细胞株C13C1F1D3G6所分泌的抗体 (antibody, V domains shown)
VH: B1 VH
VL: DIVMTQSPSSLTVTAGEKVTMSCKSSQSLLNSGNQKNYLTWYQQKPGQPPKLLIYWASTRESGVPDRFTGSGSGTHFTLTISSVQAEDLAVYYCQNDYFYPFTFGSGTKLEKK
In the case of B2, the ELISA读值 in experiment [3] was 0.889.
